Key:
[1] = tested on: ACTIVASE recombinant human tissue-type plasminogen activator (r-tPA)
[2] = tested on: CHO plasminogen activator
Sequence of CHO plasminogen activator (chain, as listed by the source): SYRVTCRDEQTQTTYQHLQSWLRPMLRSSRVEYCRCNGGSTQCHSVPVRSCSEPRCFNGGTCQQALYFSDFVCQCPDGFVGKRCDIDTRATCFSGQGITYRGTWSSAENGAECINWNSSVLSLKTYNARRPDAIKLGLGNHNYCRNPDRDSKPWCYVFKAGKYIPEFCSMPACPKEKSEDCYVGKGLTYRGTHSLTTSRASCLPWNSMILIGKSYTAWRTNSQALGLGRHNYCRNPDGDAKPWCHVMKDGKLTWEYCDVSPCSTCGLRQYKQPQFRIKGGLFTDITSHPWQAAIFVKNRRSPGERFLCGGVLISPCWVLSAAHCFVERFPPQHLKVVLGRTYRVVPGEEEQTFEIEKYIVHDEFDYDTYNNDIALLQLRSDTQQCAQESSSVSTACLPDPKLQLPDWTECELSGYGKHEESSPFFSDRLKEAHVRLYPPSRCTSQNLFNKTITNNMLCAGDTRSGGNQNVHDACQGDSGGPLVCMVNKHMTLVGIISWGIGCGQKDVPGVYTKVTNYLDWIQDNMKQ

Sequence of TNK-tPA (chain, as listed by the source): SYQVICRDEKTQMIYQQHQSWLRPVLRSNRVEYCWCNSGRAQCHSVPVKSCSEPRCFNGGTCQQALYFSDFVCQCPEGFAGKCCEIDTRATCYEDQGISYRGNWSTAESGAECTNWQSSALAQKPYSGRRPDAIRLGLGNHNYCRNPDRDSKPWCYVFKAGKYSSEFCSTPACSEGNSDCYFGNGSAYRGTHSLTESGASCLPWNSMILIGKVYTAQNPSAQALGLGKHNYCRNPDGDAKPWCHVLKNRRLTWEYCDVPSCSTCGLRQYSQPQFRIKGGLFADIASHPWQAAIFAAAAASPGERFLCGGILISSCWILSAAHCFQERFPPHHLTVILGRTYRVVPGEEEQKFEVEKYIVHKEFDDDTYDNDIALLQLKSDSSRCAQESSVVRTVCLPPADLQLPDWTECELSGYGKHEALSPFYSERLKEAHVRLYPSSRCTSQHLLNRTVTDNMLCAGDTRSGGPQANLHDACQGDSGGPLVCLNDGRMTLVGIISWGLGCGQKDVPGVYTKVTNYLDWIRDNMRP
Sequence of ACTIVASE recombinant human tissue-type plasminogen activator (r-tPA) (chain, as listed by the source): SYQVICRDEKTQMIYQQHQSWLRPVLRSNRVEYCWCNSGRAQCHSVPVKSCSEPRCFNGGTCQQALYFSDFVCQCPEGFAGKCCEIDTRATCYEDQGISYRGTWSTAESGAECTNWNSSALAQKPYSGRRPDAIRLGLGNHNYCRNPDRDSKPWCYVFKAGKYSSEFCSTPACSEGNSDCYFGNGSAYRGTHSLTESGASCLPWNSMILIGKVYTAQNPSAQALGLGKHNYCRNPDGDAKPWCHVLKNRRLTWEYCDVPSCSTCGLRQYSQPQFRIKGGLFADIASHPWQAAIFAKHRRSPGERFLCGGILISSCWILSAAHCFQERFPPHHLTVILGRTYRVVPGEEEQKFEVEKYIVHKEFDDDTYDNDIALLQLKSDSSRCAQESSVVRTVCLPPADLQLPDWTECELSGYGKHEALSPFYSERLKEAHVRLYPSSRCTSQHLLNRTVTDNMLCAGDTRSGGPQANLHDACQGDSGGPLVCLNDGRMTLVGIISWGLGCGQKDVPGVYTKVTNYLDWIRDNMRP

Plasminogen
conversion of single-chain form to two-chain form (reversed-phase HPLC after plasmin and DTT/urea treatment) [1]: incubation with plasminogen converts the single-chain form of the three plasminogen activators to the two-chain form | conversion of single-chain form to two-chain form (reversed-phase HPLC after plasmin and DTT/urea treatment) (TNK-tPA): incubation with plasminogen converts the single-chain form of the three plasminogen activators to the two-chain form | conversion of single-chain form to two-chain form (reversed-phase HPLC after plasmin and DTT/urea treatment) [2]: incubation with plasminogen converts the single-chain form of the three plasminogen activators to the two-chain form
